The target of the series is T1, anti-diuretic hormone (ADH, arginine-vasopressin) (UniProt P01185 20-28).
T1 chain: CYFQNCPRG
Description: graphene FET (drain current); 10 ag/mL to 1 pg/mL ADH in PBS; ID 116.26 to 338.64 uA at VG 8 V; sensor LOD 3.55 ag/mL; PBS (or human serum), 10 min incubation per concentration, PBS washes; pH and temperature not stated.

Here are results for one molecule from article PMC7248865, “Ultrasensitive and Highly Selective Graphene-Based Field-Effect Transistor Biosensor for Anti-Diuretic Hormone Detection”.

B1: ADH-specific aptamer (ssDNA)
DNA: TCACGTGCATGATAGACGGCGAAGCCGTCGAGTTGCTGTGTGCCGATGCACGTGA
modifications: 5'-amine
As for B1, the binding result is recorded as “binds”.
